Key:
Bevacizumab = assay: ELISA; details: point at the highest antibody concentration, about 13.3 nM (read from x axis); VEGF captured on ELISA plate; parent: est. 0.86; read off a plot
humanized EBV321 = assay: ELISA; details: point at the highest antibody concentration, about 13.3 nM (read from x axis); VEGF captured on ELISA plate; parent: est. 0.66; read off a plot
[1] = target: Recombinant human VEGF165 (human) (UniProt P15692); assay: ELISA; inhibition of VEGF/VEGFR-2 interaction
Chain of Recombinant human VEGF165 (human) (P15692 other isoform, or with tags, fused parts or gaps): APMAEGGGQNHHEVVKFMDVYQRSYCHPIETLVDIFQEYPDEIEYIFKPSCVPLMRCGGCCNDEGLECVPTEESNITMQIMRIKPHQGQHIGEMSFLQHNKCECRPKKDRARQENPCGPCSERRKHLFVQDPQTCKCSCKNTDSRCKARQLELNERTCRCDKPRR

Chain of rabbit IgG Fc-hVEGF (human VEGF165) fusion protein, wild type (from UniProt P15692-4) G88A (P15692 whole entry, looked up, stated change not applied, the tested form may be a part): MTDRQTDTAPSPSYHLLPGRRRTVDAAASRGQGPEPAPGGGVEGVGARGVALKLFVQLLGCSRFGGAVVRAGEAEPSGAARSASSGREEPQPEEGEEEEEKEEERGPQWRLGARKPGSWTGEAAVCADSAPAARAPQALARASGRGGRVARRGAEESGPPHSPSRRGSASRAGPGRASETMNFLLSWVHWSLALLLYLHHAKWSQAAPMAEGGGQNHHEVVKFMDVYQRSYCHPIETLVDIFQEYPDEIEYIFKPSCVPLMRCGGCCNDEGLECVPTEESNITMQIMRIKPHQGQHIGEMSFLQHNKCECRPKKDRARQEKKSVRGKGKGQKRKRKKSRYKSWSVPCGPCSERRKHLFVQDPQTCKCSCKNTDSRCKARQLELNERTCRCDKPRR
Chain of rabbit IgG Fc-hVEGF (human VEGF165) fusion protein, wild type (from UniProt P15692-4) G88A; Q89A (P15692 whole entry, looked up, stated change not applied, the tested form may be a part): as above
Chain of rabbit IgG Fc-hVEGF (human VEGF165) fusion protein, wild type (from UniProt P15692-4) I46A (P15692 whole entry, looked up, stated change not applied, the tested form may be a part): as above

response (Bevacizumab) | response (humanized EBV321) | IC50 [1] [nM] | Substance
0.13 OD (405nm) | 0.76 OD (405nm) | – | rabbit IgG Fc-hVEGF (human VEGF165) fusion protein, wild type (from UniProt P15692-4) G88A; Q89A
0.88 OD (405nm) | – | – | rabbit IgG Fc-hVEGF (human VEGF165) fusion protein, wild type (from UniProt P15692-4) I46A
– | – | 0.893 | Bevacizumab
0.57 OD (405nm) | – | – | rabbit IgG Fc-hVEGF (human VEGF165) fusion protein, wild type (from UniProt P15692-4) G88A
